Reference: US20220226425A1 (RHYTHM PHARMACEUTICALS, published 2022)
Bridges are numbered along the chain shown (N, C = ends). [ ]: non-standard residue; d: D form. Pen = CC(C)(S)[C@H](N)C(=O)O; hCys = N[C@@H](CCS)C(=O)O; Dap = NC[C@H](N)C(=O)O

B1: 001556C, Ac-Arg-(hCys-Ser-D-Phe-Arg-Trp-Pen)-NH2 (peptide)
peptide: Ac-R[hCys]S[dF]RW[Pen]-NH2
modifications: disulfide 2-7
SMILES: CC(=O)N[C@@H](CCCNC(=N)N)C(=O)N[C@H]1CCSSC(C)(C)[C@@H](C(N)=O)NC(=O)[C@H](Cc2c[nH]c3ccccc23)NC(=O)[C@H](CCCNC(=N)N)NC(=O)[C@@H](Cc2ccccc2)NC(=O)[C@H](CO)NC1=O
B2: 001574C, Ac-Arg-(hCys-Thr-D-Phe-Arg-Trp-Pen)-NH2 (peptide)
peptide: Ac-R[hCys]T[dF]RW[Pen]-NH2
modifications: disulfide 2-7
SMILES: CC(=O)N[C@@H](CCCNC(=N)N)C(=O)N[C@H]1CCSSC(C)(C)[C@@H](C(N)=O)NC(=O)[C@H](Cc2c[nH]c3ccccc23)NC(=O)[C@H](CCCNC(=N)N)NC(=O)[C@@H](Cc2ccccc2)NC(=O)[C@H]([C@@H](C)O)NC1=O
B3: 001576C, Ac-Arg-(Glu-Gln-D-Phe-Arg-Trp-Dpr)-NH2 (peptide)
peptide: Ac-REQ[dF]RW[Dap]-NH2
modifications: lactam 2-7
SMILES: CC(=O)N[C@@H](CCCNC(=N)N)C(=O)N[C@H]1CCC(=O)NC[C@@H](C(N)=O)NC(=O)[C@H](Cc2c[nH]c3ccccc23)NC(=O)[C@H](CCCNC(=N)N)NC(=O)[C@@H](Cc2ccccc2)NC(=O)[C@H](CCC(N)=O)NC1=O

These binders were tested against melanocortin 1 receptor (human, UniProt Q01726 1-317) (assay: cell-based or functional assay).
Chain of melanocortin 1 receptor (Q01726 whole entry): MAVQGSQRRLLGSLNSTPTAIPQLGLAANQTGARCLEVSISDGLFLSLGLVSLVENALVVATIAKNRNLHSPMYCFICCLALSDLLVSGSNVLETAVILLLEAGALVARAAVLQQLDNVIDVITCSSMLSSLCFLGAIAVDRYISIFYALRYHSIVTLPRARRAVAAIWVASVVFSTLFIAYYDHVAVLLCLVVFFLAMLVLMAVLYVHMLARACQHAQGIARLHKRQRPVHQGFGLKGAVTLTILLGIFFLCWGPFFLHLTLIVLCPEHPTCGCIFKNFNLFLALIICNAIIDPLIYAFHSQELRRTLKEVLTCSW

| EC-50 (nM), cAMP accumulation | Binder |
| --- | --- |
| 235 nM | Ac-R[hCys]N[dF]RW[Pen]-NH2 (disulfide 2-7) [001554C, Ac-Arg-(hCys-Asn-D-Phe-Arg-Trp-Pen)-NH2] |
| 47.5 nM | Ac-R[hCys]Q[dF]RW[Pen]-NH2 (disulfide 2-7) [001555C, Ac-Arg-(hCys-Gln-D-Phe-Arg-Trp-Pen)-NH2] |
| 229 nM | B1 |
| 516 nM | B2 |
| 23.6 nM | B3 |

These binders were tested against melanocortin-4 receptor (human, UniProt P32245 1-332) (assay: cell-based or functional assay).
Chain of melanocortin-4 receptor (P32245 whole entry): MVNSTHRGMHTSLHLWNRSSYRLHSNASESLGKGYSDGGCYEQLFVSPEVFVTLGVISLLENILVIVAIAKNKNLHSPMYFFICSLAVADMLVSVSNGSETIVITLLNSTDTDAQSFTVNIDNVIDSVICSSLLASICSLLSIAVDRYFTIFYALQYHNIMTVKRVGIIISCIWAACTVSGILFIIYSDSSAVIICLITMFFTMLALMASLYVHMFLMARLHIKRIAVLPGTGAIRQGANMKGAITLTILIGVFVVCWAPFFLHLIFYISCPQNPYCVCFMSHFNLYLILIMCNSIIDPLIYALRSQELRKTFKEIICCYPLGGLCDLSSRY

| EC-50 (nM), cAMP accumulation | Binder |
| --- | --- |
| 1.6 nM | Ac-R[hCys]N[dF]RW[Pen]-NH2 (disulfide 2-7) [001554C, Ac-Arg-(hCys-Asn-D-Phe-Arg-Trp-Pen)-NH2] |
| 0.19 nM | Ac-R[hCys]Q[dF]RW[Pen]-NH2 (disulfide 2-7) [001555C, Ac-Arg-(hCys-Gln-D-Phe-Arg-Trp-Pen)-NH2] |
| 1.86 nM | B1 |
| 1.11 nM | B2 |
| 0.66 nM | B3 |

What follows are binders tested against melanocortin 3 receptor (human, UniProt P41968 1-323) (assay: cell-based or functional assay).
Chain of melanocortin 3 receptor (P41968 whole entry): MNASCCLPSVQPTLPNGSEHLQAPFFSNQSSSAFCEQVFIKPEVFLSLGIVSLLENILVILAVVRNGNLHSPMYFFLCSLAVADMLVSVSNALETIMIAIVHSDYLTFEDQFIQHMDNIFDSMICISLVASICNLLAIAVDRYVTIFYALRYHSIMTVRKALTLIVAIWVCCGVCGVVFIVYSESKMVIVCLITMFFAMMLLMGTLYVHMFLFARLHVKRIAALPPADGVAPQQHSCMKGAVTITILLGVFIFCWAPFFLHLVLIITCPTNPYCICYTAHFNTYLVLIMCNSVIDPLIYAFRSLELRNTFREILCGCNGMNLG

| EC-50 (nM), cAMP accumulation | Selectivity Ratio MC4R/MC3R (of EC-50 values) | Binder |
| --- | --- | --- |
| > 3000 nM | > 1870 | Ac-R[hCys]N[dF]RW[Pen]-NH2 (disulfide 2-7) [001554C, Ac-Arg-(hCys-Asn-D-Phe-Arg-Trp-Pen)-NH2] |
| 0.52 nM | 2.68 | Ac-R[hCys]Q[dF]RW[Pen]-NH2 (disulfide 2-7) [001555C, Ac-Arg-(hCys-Gln-D-Phe-Arg-Trp-Pen)-NH2] |
| > 3000 nM | > 1620 | B1 |
| > 3000 nM | > 2710 | B2 |
| 1.16 nM | 1.75 | B3 |

These binders were tested against melanocortin 5 receptor (human, UniProt P33032 1-325) (assay: cell-based or functional assay).
Chain of melanocortin 5 receptor (P33032 whole entry): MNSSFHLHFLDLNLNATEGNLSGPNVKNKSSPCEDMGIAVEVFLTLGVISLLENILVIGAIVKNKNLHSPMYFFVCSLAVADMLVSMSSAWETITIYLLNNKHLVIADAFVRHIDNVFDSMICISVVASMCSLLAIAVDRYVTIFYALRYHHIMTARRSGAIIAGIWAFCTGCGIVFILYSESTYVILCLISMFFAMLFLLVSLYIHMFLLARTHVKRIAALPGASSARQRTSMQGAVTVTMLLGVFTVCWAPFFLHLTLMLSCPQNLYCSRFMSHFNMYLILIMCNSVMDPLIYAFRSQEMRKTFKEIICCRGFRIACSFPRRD

| EC-50 (nM), cAMP accumulation | Binder |
| --- | --- |
| 735 nM | Ac-R[hCys]N[dF]RW[Pen]-NH2 (disulfide 2-7) [001554C, Ac-Arg-(hCys-Asn-D-Phe-Arg-Trp-Pen)-NH2] |
| 124 nM | Ac-R[hCys]Q[dF]RW[Pen]-NH2 (disulfide 2-7) [001555C, Ac-Arg-(hCys-Gln-D-Phe-Arg-Trp-Pen)-NH2] |
| 1700 nM | B1 |
| 2050 nM | B2 |
| 67.3 nM | B3 |
